Data published in paper PMC4980223 (Immunology and cell biology, 2016).

Target: the molecule itself
Experiment: SEC

B1: recombinant, soluble SRCR trimer (HIS6-SRCR, MARCO residues 400-520) (domain or fragment, human, UniProt Q9UEW3 400-520, looked up)
chain: GVKGSSGEQGVKGEKGERGENSVSVRIVGSSNRGRAEVYYSGTWGTICDDEWQNSDAIVFCRMLGYSKGRALYKVGAGTGQIWLDNVQCRGTESTLWSCTKNSWGHHDCSHEEDAGVECSV
With B1 as the protein, how does the “stoichiometry N” value read?
Its value is 3.
